Data as given in US7834164B2 (priority 2006, dated 2010).
Entries after “also recorded” stand apart in the source; their conditions may differ. Bridge positions count the residues as written; N and C are the ends. Ends that are not written are not given here. Peptide text beside a SMILES is read from it.

B1: FcLoop-L2-OsK1-L2: OsK1 inserted into human IgG1 Fc loop between Leu139 and Thr140 with Gly linkers (protein)
chain: MDKTHTCPPCPAPELLGGPSVFLFPPKPKDTLMISRTPEVTCVVVDVSHEDPEVKFNWYVDGVEVHNAKTKPREEQYNSTYRVVSVLTVLHQDWLNGKEYKCKVSNKALPAPIEKTISKAKGQPREPQVYTLPPSRDELGGGVIINVKCKISRQCLEPCKKAGMRFGKCMNGKCHCTPKGGTKNQVSLTCLVKGFYPSDIAVEWESNGQPENNYKTTPPVLDSDGSFFLYSKLTVDKSRWQQGNVFSCSVMHEALHNHYTQKSLSLSPGK
modifications: Definition of Artificial Sequence: Synthetic protein
B2: FcLoop-L2-ShK-L2: ShK inserted into human IgG1 Fc loop with Gly linkers (protein)
chain: MDKTHTCPPCPAPELLGGPSVFLFPPKPKDTLMISRTPEVTCVVVDVSHEDPEVKFNWYVDGVEVHNAKTKPREEQYNSTYRVVSVLTVLHQDWLNGKEYKCKVSNKALPAPIEKTISKAKGQPREPQVYTLPPSRDELGGRSCIDTIPKSRCTAFQCKHSMKYRLSFCRKTCGTCGGTKNQVSLTCLVKGFYPSDIAVEWESNGQPENNYKTTPPVLDSDGSFFLYSKLTVDKSRWQQGNVFSCSVMHEALHNHYTQKSLSLSPGK
modifications: Definition of Artificial Sequence: Synthetic protein
B3: PEGylated CH2-OSK1: CH2-OSK1 fusion protein mono-PEGylated with 20 kD methoxy-PEG-aldehyde (conjugate)
chain: MGGHHHHHHGGGPSVFLFPPKPKDTLMISRTPEVTCVVVDVSHEDPEVKFNWYVDGVEVHNAKTKPREEQYNSTYRVVSVLTVLHQDWLNGKEYKCKVSNKALPAPIEKTISGGGGSGGGGSGVIINVKCKISRQCLEPCKKAGMRFGKCMNGKCHCTPK

System: IL-2 production in human whole blood
Assay type: cell-based

Row | Molecule | potency in blocking the cytokine response relative to cyclosporin A | blockade of the whole blood cytokine response (IL-2 and IFNg; in words)
1 | CC[C@H](C)[C@@H]1NC(=O)[C@H](CCCCN)NC(=O)[C@@H](NC(=O)[C@H](CCCCN)NC(=O)[C@@H](NC(=O)[C@H](CC(N)=O)NC(=O)[C@@H](NC(=O)[C@@H](NC(=O)[C@@H](NC(=O)CN)C(C)C)[C@@H](C)CC)[C@@H](C)CC)C(C)C)CSSC[C@@H]2NC(=O)[C@H](CCCCN)NC(=O)CNC(=O)[C@H](Cc3ccccc3)NC(=O)[C@H](CCCNC(=N)N)NC(=O)[C@H](CCSC)NC(=O)CNC(=O)[C@H](C)NC(=O)[C@H](CCCCN)NC(=O)[C@H](CCCCN)NC(=O)[C@@H]3CSSC[C@@H](C(=O)N[C@H](C(=O)N4CCC[C@H]4C(=O)N[C@@H](CCCCN)C(=O)O)[C@@H](C)O)NC(=O)[C@H](Cc4c[nH]cn4)NC(=O)[C@H](CSSC[C@H](NC(=O)[C@H](CCC(N)=O)NC(=O)[C@H](CCCNC(=N)N)NC(=O)[C@H](CO)NC1=O)C(=O)N[C@@H](CC(C)C)C(=O)N[C@@H](CCC(=O)O)C(=O)N1CCC[C@H]1C(=O)N3)NC(=O)[C@H](CCCCN)NC(=O)CNC(=O)[C@H](CC(N)=O)NC(=O)[C@H](C)NC2=O [OSK1[Ala-29]] (H-GVIINVKCKISRQCLEPCKKAGMRFGKCANGKCHCTPK-OH; disulfide 8-28, 14-33, 18-35) | several orders of magnitude more potent | 
2 | SEQ ID No: 4989: OSK1 analog without beta strand 1 (labeled des 1-7), Table 42 (CKISRQCLKPCKDAGMRFGKCMNGKCHC-NH2; ends and bridges not checked) |  | retain activity in blocking inflammation
3 | B1 |  | potent blockade
4 | B2 |  | potent blockade
5 | B3 |  | active in blocking inflammation; also recorded: modest blockade
